The values that follow come from patent publication US7244563B2, “Genes for plant fatty acid modifying enzymes associated with conjugated double bond formation” (E. I. du Pont de Nemours and Company, priority 2002, dated 2007).

Test [1] has as its system Tobacco (Nicotiana tabacum L. cv Xanthi) callus. Kind of test: Fatty acid analysis (GC, GC-MS) of transgenic tobacco callus expressing the cDNA. In kind it is cell-based. The note with it: pBI121, 35S promoter, highest amount. From the text:
The cDNAs encoding fatty acid modifying enzymes associated with conjugated double bond synthesis in seeds of Impatiens balsamina and Momordica charantia were introduced into a plant expression vector designated pML63. Vector pML63 contains the uidA gene (which encodes the GUS enzyme) operably linked to the CaMV35S promoter and 3′ NOS sequence. pML63 is modified from pMH40 to produce a minimal 3′ NOS terminator fragment. pMH 40 is described in WO 98/16650 which was published on Apr. 23, 1998, the disclosure of which are hereby incorporated by reference. Using standard techniques familiar to those skilled in the art, the 770 base pair terminator sequence contained in pMH40 was replaced with a new 3′ NOS terminator sequence comprising nucleotides 1277 to 1556 of the sequence published by Depicker et al. (1982, J. Appl. Genet. 1:561–574). A chimeric gene was constructed comprising cDNAs encoding fatty acid modifying enzymes associated with conjugated double bond synthesis in seeds of Impatiens balsamina and Momordica charantia in sense orientation with respect to the cauliflower mosaic virus 35S promoter that is located 5′ to the cDNA fragment and termination sequences from the nopaline synthase (NOS) that are located 3′ to the cDNA fragment. The cDNAs for the Impatiens polypeptide was introduced in the NcoI and EcoRI sites of the vector pML63. The cDNA for the Momordica polypeptide was introduced into the NcoI and SmaI sites of the vector pML63. The NcoI and EcoRI sites flanking the Impatiens cDNA were generated by PCR amplification of the cDNAs using oligonucleotide primers that contained these restriction sites (SEQ ID NO:7 and SEQ ID NO:8, for the sense and antisense oligonucleotides, respectively). PCR amplification was conducted using the Pfu DNA polymerase. The NcoI site flanking the 5′ end of the Momordica cDNA was generated by PCR amplification in a similar manner (SEQ ID NO:9 and SEQ ID NO:10). The 3′ end of the PCR-generated Momordica cDNA was blunt-ended which allowed for cloning into the SmaI site of the vector pML63. The resulting fusions of the cauliflower mosaic virus 35S promoter with the cDNAs encoding fatty acid modifying enzymes associated with conjugated double bond synthesis in seeds of Impatiens balsamina or Momordica charantia and NOS termination sequences were released from the vector pML63 by digestion with XbaI. The resulting XbaI fragment was ligated into the corresponding site of the binary vector pZS199 The vector pZS199 contains the following elements: (1) the chimeric gene nopaline synthase/neomycin phosphotransferase as a selectable marker for transformed plant cells (Brevan et al. (1984) Nature 304:184–186), (2) the left and right borders of the T-DNA of the Ti plasmid (Brevan et al. (1984) Nucl. Acids Res. 12:8711–8720), (3) the E. coli lacZ-complementing segment (Vieria and Messing (1982) Gene 19:259–267) with unique restriction endonuclease sites for EcoRI, KpnI, BamHI, XbaI and SalI, (4) the bacterial replication origin from the Pseudomonas plasmid pVS1 (Itoh et al. (1984) Plasmid 11:206–220), and (5) the bacterial neomycin phosphotransferase gene from Tn5 (Berg et al. (1975) Proc. Natl. Acad. Sci. U.S.A. 72:3628–3632) as a selectable marker for transformed A. tumefaciens. The nopaline synthase promoter in the plant selectable marker was replaced by the 35S promoter (Odell et al. (1985) Nature, 313:810–813) by a standard restriction endonuclease digestion and ligation strategy.
Gene fusions of the Impatiens balsamina or Momordica charantia cDNAs with the cauliflower mosaic virus 35S promoter and the NOS termination sequences in vector pZS199 were introduced into Agrobacterium tumefaciens strain LBA4404. […]

A further test concerns soybean embryos. Kind of test: Fatty acid composition of transgenic soybean somatic embryos (GC, GC-MS). In kind it is cell-based. The method, then:
Gene fusions of the Impatiens balsamina or Momordica charantia cDNAs with the conglycinin promoter and phaseolin termination sequences in vector pKS67 were introduced into soybean embryos using the particle bombardment method of transformation. To induce somatic embryos, cotyledons, 3–5 mm in length dissected from surface sterilized, immature seeds of a soybean cultivar A2872 or JACK-910 were cultured in the light or dark at 26° C. on an appropriate agar medium for 6–10 weeks. Somatic embryos that produce secondary embryos were then excised and placed into a suitable liquid medium. After repeated selection for clusters of somatic embryos that multiplied as early, globular staged embryos, the suspensions were maintained as described below.
Soybean embryogenic suspension cultures were then transformed with the vector pKS67 containing the Impatiens or Momordica cDNA for fatty acid modifying enzymes associated with conjugated double synthesis by the method of particle gun bombardment (Klein et al. (1987) Nature (London) 327:70, U.S. Pat. No. 4,945,050). A DuPont Biolistic™ PDS1000/HE instrument (helium retrofit) was used for these transformations.
Five to seven days post bombardment, the liquid media was exchanged with fresh media, and eleven to twelve days post bombardment with fresh media containing […] hygromycin. This selective media was refreshed weekly. Seven to eight weeks post bombardment, green, transformed tissue was observed growing from untransformed, necrotic embryogenic clusters. Isolated green tissue was removed and inoculated into individual flasks to generate new, clonally propagated, transformed embryogenic suspension cultures. Each new line was treated as an independent transformation event. These suspensions were then subcultured and maintained as clusters of immature embryos.
Transgenic soybean embryos selected and maintained in this manner were analyzed for eleostearic acid and parinaric acid content using methods described in Example 4 (Table 1). Individual embryos expressing either the Impatiens or Momordica fatty acid modifying enzyme for conjugated double bond synthesis were homogenized in 1% (w/v) sodium methoxide in methanol. Fatty acid methyl esters resulting from this transesterification step were analyzed by both GC and GC-MS as described in Example 4. Methyl esters of eleostearic and parinaric acids were identified in transgenic soybean extracts by comparison of retention times and mass spectra with those of fatty acid methyl esters prepared from seeds of Impatiens balsamina and Momordica charantia. […] In soybean embryos expressing the Momordica enzyme, eleostearic acid was detected principally as α-eleostearic acid with lesser amounts of at least two other cis-trans isomers of eleostearic acid. […]

[2] abbreviates: soybean embryos, six independent transgenic lines (n = 6), ± standard deviation, % of total oil weight.

B1: ChrFad2: Chrysobalanus icaco fatty acid modifying enzyme associated with conjugated double bond synthesis, SEQ ID NO:20, cDNA SEQ ID NO:19 (protein)
chain: MGAGGQKTFPRLEEEEKQQQAAAAGFKRIPTTKPPFTLSDLKKAIPPHCFQRSLLRSFSYVFIDLTIISILGYIGATYICLLPPPSKYLAWLLYWAVQGCFFTGAWALAHDCGHHAFSDYQWIDDAVGMVLHSTLMVPYFSFKYSHRRHHSNINSLERDEVFVPRPKSKIKWYCSKYLNNPLGRVLTLAVTLILGWPMYLALNASGRDYDRFVSHFYPYGPIYNDRERLQIYISDAGIFIVSYVLYQVALAKGLPWLICIYGVPLFVNNALVVTITYLQHTHPELPRYGNSEWDWFKGTLATVDRDMGPLLNWATHHVSDTHYVHHLFSTMPHYHGVEATKAVKPMLGEYYRFDPTPLYKALWREAKECLFVEPDSKSPGVFWFDKF
modifications: Chrysobalanus icaco
Consider B1, for which, in test [1], the “α-eleostearic acid of the total fatty acids of callus samples” value was no more than 4.7 wt % and the “α-paranaric acid of the total fatty acids of callus samples” value is no more than 0.4 wt %. In the test with soybean embryos (soybean embryos, single embryos from six independent transgenic lines (n = 6), ± standard deviation, % of total oil weight), the “16:0” value was 7.0 ± 1.4 Weight %. Also, in the test on soybean embryos (setting [2]), the “18:0” value amounted to 1.9 ± 0.6 Weight %, the “18:1” value was determined as 37.6 ± 6.2 Weight %, the “18:2” value is reported as 28.1 ± 3.8 Weight % and the “18:3” value was 6.0 ± 2.5 Weight %. The molecule further yielded a α-Parinaric with soybean embryos (setting [2]) of 0.9 ± 0.3 Weight %. The molecule also gave an Eleostearic in the test with soybean embryos (soybean embryos, six independent transgenic lines (n = 6), includes cis-trans isomers of α-eleostearic acid (<1.0 wt %)) of 16.4 ± 2.4 Weight %. This molecule came in with an Other with soybean embryos (soybean embryos, six independent transgenic lines (n = 6), primarily 20:0, 20:1, 22:0, and 22:1) of less than 2.1 Weight %. The “α-paranaric acid of the total fatty acids” value with soybean embryos (soybean somatic embryos, β-conglycinin promoter) is “approximately 1 wt %”. Besides, the “α-eleostearic acid of the total fatty acids” value with soybean embryos (soybean somatic embryos, β-conglycinin promoter, highest amount) was no more than 21 wt %.
